In patent US20120231013A1 (Amgen, published 2012):
Residue numbers refer to the chain shown, from its start. Where “and” joins values, the source holds several entries; their conditions need not be identical. Equal values may be shown once.

T1: recombinant mouse TIMP-3 (mouse, UniProt P39876 24-211)
T1 construct: also called MuTIMP-3
T1 sequence (looked up): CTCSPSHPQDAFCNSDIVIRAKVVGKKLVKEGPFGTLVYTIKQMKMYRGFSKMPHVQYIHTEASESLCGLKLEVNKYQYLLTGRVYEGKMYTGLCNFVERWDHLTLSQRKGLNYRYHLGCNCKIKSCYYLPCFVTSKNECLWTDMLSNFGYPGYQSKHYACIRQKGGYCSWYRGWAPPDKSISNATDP

B1: LRP-1 peptide LA24-26 (peptide)
chain: not shown
notes: The end 3574 is inferred from the end of LA26
B2: LRP-1 peptide LA3-5 (peptide)
chain: not shown
notes: Tags implied (Ni-NTA, anti-HA detection), not described
B3: recombinant human TIMP-3 (other, UniProt P35625 24-211, looked up)
chain: T1 sequence (looked up) with S51T, E87D, H103Q, S183I
B4: LRP-1 peptide LA5-7 (peptide)
chain: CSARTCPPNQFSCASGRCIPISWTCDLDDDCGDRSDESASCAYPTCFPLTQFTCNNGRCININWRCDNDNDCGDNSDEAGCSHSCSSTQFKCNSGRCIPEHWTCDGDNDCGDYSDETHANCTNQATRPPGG
notes: as for B2

What was measured:
[1] = molecular target: T2, recombinant TIMP-3 (human or mouse; Table 2 does not say which); assay: binding ELISA, Assay 1
T2 construct: The methods say 'human or mouse TIMP-3'

[2] = molecular target: B3; assay: cell-based or functional assay
[3] = molecular target: T3, MMP-13 (UniProt P45452 20-471, limits assumed); assay: cell-based or functional assay
[4] = molecular target: T2, recombinant TIMP-3 (human or mouse; …); assay: binding ELISA, Assay 3
[5] = molecular target: T2, recombinant TIMP-3 (human or mouse; …); assay: AlphaScreen, biotinylated TIMP-3, Assay 1
Method: (§1) Peptides were also evaluated by AlphaScreen® (Amplified Luminescent Proximity Homogeneous Assay; PerkinElmer, Waltham, Mass.) a very sensitive non-radioactive homogeneous assay technology that allows the screening of a large range of biological interactions and activities, substantially according to the manufacturer's instructions. Briefly, all dilutions are made in AlphaScreen® Buffer: [40 mM HEPES pH 7.5, 100 mM NaCl, 1 mM CaCl2, 0.1% BSA, 0.05% Tween-20]. The LRP-1 peptides are titrated in a separate polypropylene 96-well plate (Falcon) starting at 4 microM concentration and then diluted serially 3-fold for 12-points, with the last point buffer only. First 2 microL/well of protein titration curve is added to white, small volume, 384-well assay plate (Greiner Bio-One, Stonehouse, UK) in duplicate. Next, 2 microL of biotinylated (AFS, in-house conjmicroGation) recombinant human or mouse TIMP-3, is added at 12 nM (or 3 nM final assay concentration) to the assay plate. Lastly, in subdued light 4 microL of a mixture of streptavidin donor beads, anti-mouse IgG acceptor beads (PerkinElmer) both diluted to 20 microG/mL (10 microG/mL final assay concentration) and 2 nM (1 nM final concentration) rat-anti-HA (clone3F10)-HRP (Roche Diagnostics) is added to the plates. Plates containing 8 microL final assay volme are covered with TopSeal A (to prevent evaporation), spun quickly at 1000 rpm, and incubated overnight (covered with foil to prevent light exposure) before reading on Fusion plate reader (PerkinElmer) using AlphaScreen® parameters (excitation 680 nm and emission 520-620 nm). Data is analyzed using GraphPad Prism 4.01 software. Binding to TIMP-3 is reported as total signal (cps).

[6] = molecular target: T2, recombinant TIMP-3 (human or mouse; …); assay: AlphaScreen, biotinylated TIMP-3, Assay 2
Method: as §1

[7] = molecular target: B3; assay: indirect ELISA, huTIMP-3 captured by anti-TIMP-3 clone 277128
Method: (§2) Then 100 microL/well of the diluted LRP-1 peptide titration is added to the TIMP-3 coated plate and allowed to bind for 1.5 hour at room temperature with shaking. After incubation, the plate is washed three times with 200 microL/well of wash buffer 2 (TBS [pH 7.5], 1 mM CaCl₂, 0.02% Tween-20). […] The assay plate is then washed three times with 200 microL/well with wash buffer 2. The plate is developed by adding 100 microL/well of 1:1 mixture of TMB and H₂O₂ (Pierce, Fisher Thermo Scientific, Rockford Il.), the reaction is stopped by adding 100 microL/well 2NH₂SO₄ (VWR), and read on a SpectraMax microplate reader (Molecular Devices, Sunnyvale, Calif.) at OD450 nm using SOFTmax Pro software version 3.1.2. Data is analyzed using GraphPad Prism 4.01 software. Binding of LRP-1 peptides to TIMP-3 is expressed as binding EC50.
After incubation, the plate contents are discarded and 250 microL/well of blocking buffer (1% BSA, TBS [pH 7.5], 1 mM CaCl₂) is added to the plate which is incubated with shaking for 1 hour at room temperature. The plate is then washed three times with 200 microL/well with wash buffer 1 (TBS [pH 7.5], 1 mM CaCl₂) followed by the addition of 100 microL of 20 nM recombinant human TIMP-3. The plate is incubated at room temperature for 1 hour. The LRP-1 peptides are titrated as described previously, and 100 microL/well of the diluted LRP-1 peptide titration is added to the TIMP-3 coated plate and allowed to bind for 1.5 hour at room temperature with shaking. After incubation, the plate is washed and the ELISA performed substantially as described previously for the direct binding ELISA.

[8] = molecular target: T2, recombinant TIMP-3 (human or mouse; …); assay: binding ELISA, Assay 2
[9] = molecular target: B3; assay: direct ELISA, coated huTIMP-3
Method: as §2, with “After incubation, the coating solution is removed and replaced with 250 microL/well of blocking buffer (1% BSA, TBS [pH 7.5], 1 mM CaCl₂) and incubated with shaking for 1 hour at room temperature. The plates are then washed three times with 200 microL/well with wash buffer 1 (TBS [pH 7.5], 1 mM CaCl₂). The LRP-1 peptides are titrated in assay buffer (0.1% BSA, TBS [pH 7.5], 1 mM CaCl₂, 0.02% Tween-20) in a separate polypropylene non-treated round-bottom 96-well plate (BD Falcon™) starting at 1 microM concentration and then diluted serially 4-fold for 8-points, with the last point buffer only. Then” for “Then”

[10] = molecular target: T1, recombinant mouse TIMP-3; assay: direct ELISA, coated muTIMP-3
Method: as §2, with “After incubation, the coating solution is removed and replaced with 250 microL/well of blocking buffer (1% BSA, TBS [pH 7.5], 1 mM CaCl₂) and incubated with shaking for 1 hour at room temperature. The plates are then washed three times with 200 microL/well with wash buffer 1 (TBS [pH 7.5], 1 mM CaCl₂). The LRP-1 peptides are titrated in assay buffer (0.1% BSA, TBS [pH 7.5], 1 mM CaCl₂, 0.02% Tween-20) in a separate polypropylene non-treated round-bottom 96-well plate (BD Falcon™) starting at 1 microM concentration and then diluted serially 4-fold for 8-points, with the last point buffer only. Then” for “Then”

[11] = molecular target: T3, MMP-13; assay: cell-based or functional assay; remark: listed apart in the source

EC50 [1]	% of the inhibitory activity of TIMP-3 + peptide compared to TIMP-3 alone, 16 nM [2] [%]	% of the inhibitory activity of TIMP-3 + peptide compared to TIMP-3 alone, 80 nM [2] [%]	% of the inhibitory activity of TIMP-3 + peptide compared to TIMP-3 alone, 400 nM [2] [%]	Direct Inhibition of MMP13 (% decrease), 1000 nM [3] [%]	EC50 [4] [µM]	total signal (cps) [5] [cps]	total signal (cps) [6] [cps]	EC50 [7] [µM]	EC50 [8] [µM]	EC50 [9] [µM]	EC50 [10] [µM]	% of the inhibitory activity of TIMP-3 + peptide compared to TIMP-3 alone, 2000 nM [2] [%]	IC50 of TIMP-3 inhibition of MMP-13 (fluorogenic substrate) [11] [µM]	Binder
0.046 µM and 0.026 µM	92	95	105	59	0.068	150000	120000	0.008	0.08	0.028	0.015	–	–	B1
0.0525 µM	104	101	–	2	0.214	4000	9000	0.008	–	0.078	0.071	101	–	B2
–	–	–	–	–	–	–	–	–	–	–	–	–	0.0005 to 0.001	B3
0.21 µM	101	99	93	2	0.35	2000	8000	0.009	–	0.094	0.074	68	–	B4
